Data on seven substances can be found in paper PMC11310688.

Test [1] deals with Halo-HA-Nesp2-SR48∼56 (Nesprin-2 spectrin repeats 48-56) (mouse) (UniProt Q6ZWQ0).
Test [2] addresses dynactin subunit p150^Glued, Q14203-1. Nature of the test: co-immunoprecipitation (IP: anti-Halo) with immunoblot quantification. The following applies: HEK293 cell lysate, bars mean ± SEM, parent: est. 1.0, read off a plot.
Test [3] deals with kinesin heavy chain (KHC) (UniProt P33176). Described as above. The following applies: HEK293 cell lysate; n = 5 independent experiments; bars mean ± SEM; parent: est. 1.0; read off a plot.

Substance “Bicaudal D2 (BicD2) (from UniProt Q8TD16 1-824) (natural protein)” came in with a velocity of rapalog-induced peroxisome transport by Nesp2-SR48ΔKASH-FRB (5655-6767aa) along microtubules in MRC5 cells, both directions in test [1] of 1 µm/s. Take “Halo-HA-Nesp2-SR48-KASH (Nesprin-2 SR48-56 and the KASH domain) (from UniProt Q6ZWQ0-1) ALALE>AAAAA; SLFTE>AAAAA; RLARE>AAAAA; AAWLG>VVWLG”: the ratio to parent in test [2] (n = 5 independent experiments) is 0.19; in test [3], 0.22.

For “Halo-HA-Nesp2-SR48-KASH (Nesprin-2 SR48-56 and the KASH domain) (from UniProt Q6ZWQ0-1) ALALE>AAAAA; SLFTE>AAAAA; RLARE>AAAAA; LEWD>LEAA; AAWLG>VVWLG”, the ratio to parent in test [2] (3 data points drawn for this bar) is 0.08. For “Halo-HA-Nesp2-SR48-KASH (Nesprin-2 SR48-56 and the KASH domain) (from UniProt Q6ZWQ0-1) LEWD>LEAA”, the ratio to parent in test [2] (n = 5 independent experiments) worked out at 0.98. “dynactin subunit p150^Glued (from UniProt Q14203-1 1-1278) (natural protein)”: the velocity of rapalog-induced peroxisome transport by Nesp2-SR48ΔKASH-FRB (5655-6767aa) along microtubules in MRC5 cells, both directions in test [1] came to 1 µm/s.

In test [1], “dynein heavy chain (DHC) (from UniProt Q14204 1-4646) (natural protein)” registered a velocity of rapalog-induced peroxisome transport by Nesp2-SR48ΔKASH-FRB (5655-6767aa) along microtubules in MRC5 cells, both directions of 1 µm/s. Take “kinesin heavy chain (KHC) (from UniProt P33176 1-963) (natural protein)”: in test [1], the velocity of rapalog-induced peroxisome transport by Nesp2-SR48ΔKASH-FRB (5655-6767aa) along microtubules in MRC5 cells, both directions was determined as 1 µm/s.
